Data reported in patent US20250250357A1 (NANJING ZAIMING PHARMACEUTICAL, published 2025).
Blank lines part the entries; values can stand above or below the binder they belong to.

What was measured:
[1] = target: T1, human MSLN-FL-his protein (human, UniProt Q13421 296-580); assay: competitive ELISA; row Tab106
T1 construct: made in HEK293E cells, purified on nickel column; also called hMSLN-FL-his; human MSLN full-length protein; not shown: His tag
T1 sequence (Q13421 other isoform, or with tags, fused parts or gaps): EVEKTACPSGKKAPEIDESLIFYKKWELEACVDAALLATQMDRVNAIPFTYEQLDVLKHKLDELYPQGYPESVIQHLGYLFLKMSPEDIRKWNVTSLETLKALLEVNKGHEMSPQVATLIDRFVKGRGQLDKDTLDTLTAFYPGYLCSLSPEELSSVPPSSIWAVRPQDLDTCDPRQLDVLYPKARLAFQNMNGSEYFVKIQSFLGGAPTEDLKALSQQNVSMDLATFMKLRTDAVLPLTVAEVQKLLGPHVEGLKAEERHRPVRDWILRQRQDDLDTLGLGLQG

[2] = target: T1, human MSLN-FL-his protein; assay: competitive ELISA; row Tab142
Procedure: (§1) In order to identify antigen-binding sites of antibodies, MSLN chimeric antibodies were grouped using competitive ELISA.
(§2) The chimeric antibodies were diluted to 2 μg/mL with PBS and allowed to coat 96-well high-adsorption ELISA plates at 50 μL/well. After the plates were coated at 4° C. overnight, 250 μL of a blocking buffer (PBS containing 2% (w/w) BSA) was added for two hours of blocking at room temperature. 40 μg/mL of the antibodies to be tested were added, and then the human MSLN-FL-His protein with an EC₈₀ concentration corresponding to each of the antibodies to be tested was added for incubation for 2 h. The plates were washed 5 times with PBS, an HRP-labeled anti-His secondary antibody (purchased from Genescript, Cat. No. A00612) was then added for incubation for 1 h, and the plates were washed 5 times again. A TMB substrate was added at 50 μL/well, and after 10 minutes of incubation at room temperature, a stop solution (1.0 M HCl) was added at 50 μL/well. OD₄₅₀ nm values were read using an ELISA plate reader (Insight, purchased from PerkinElmer), and the competition rate between the antibodies was calculated according to the OD₄₅₀ nm values using a formula.

[3] = target: T1, human MSLN-FL-his protein; assay: competitive ELISA; row F3-63.5
Procedure: as §1, §2

[4] = target: T1, human MSLN-FL-his protein; assay: competitive ELISA; row F6-62.5
Procedure: as §1, §2

[5] = target: T1, human MSLN-FL-his protein; assay: competitive ELISA; row F6-76.1
Procedure: as §1, §2

[6] = target: T1, human MSLN-FL-his protein; assay: competitive ELISA; row F2-56.12
Procedure: as §1, §2

[7] = target: T1, human MSLN-FL-his protein; assay: competitive ELISA; row F4-94.15
Procedure: as §1, §2

[8] = target: T1, human MSLN-FL-his protein; assay: SPR (Biacore), antibody captured on Protein A chip;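 further: measured at 25 °C, analyte injected 240 s in five twofold dilutions from 200 nM, dissociation up to 600 s, double-referenced, fitted with Langmuir 1:1 model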
[9] = target: T2, human MSLN-R2-his protein (human, UniProt Q13421 391-486); assay: ELISA, coated antigen; antibody 1 nM
T2 construct: also called human MSLN-R2 protein; hMSLN-R2-his; not shown: His tag

[10] = target: T2, human MSLN-R2-his protein; assay: ELISA, coated antigen; antibody 10 nM
Procedure: (§3) The plate was sealed with a plastic film and incubated at 4° C. overnight. The next day, the plate was washed twice with PBST, and a blocking buffer [PBS+2% (w/w) BSA] was added for blocking at room temperature for 2 h. The blocking buffer was discarded, and a chimeric antibody or negative control antibody serially diluted from 100 nM was added at 50 μL/well. After incubation at 37° C. for 2 h, the plate was washed 3 times with PBST. […] After incubation at 37° C. for 2 h, the plate was washed 5 times with PBST. A TMB substrate was added at 50 μL/well for incubation at room temperature for 5-10 min, and then a stop solution (1.0 N HCl) was added at 50 μL/well.

[11] = target: T2, human MSLN-R2-his protein; assay: ELISA, coated antigen; antibody 0.1 nM
Procedure: as §3

[12] = target: T2, human MSLN-R2-his protein; assay: ELISA, coated antigen; antibody 100 nM
Procedure: as §3

[13] = target: T2, human MSLN-R2-his protein; assay: ELISA, coated antigen; antibody 0.01 nM
Procedure: as §3

[14] = target: T2, human MSLN-R2-his protein; assay: ELISA, coated antigen; antibody 0.001 nM
Procedure: as §3

[15] = target: T2, human MSLN-R2-his protein; assay: ELISA, coated antigen; antibody 0.0001 nM
Procedure: as §3

[16] = target: T2, human MSLN-R2-his protein; assay: ELISA, coated antigen; no antibody (blank, column 'none')
Procedure: as §3

[17] = target: T3, human MSLN-R3-his protein (human, UniProt Q13421 487-598); assay: ELISA, coated antigen, antibody 1 nM
T3 construct: Made in HEK293E cells, purified on nickel column; also called hMSLN-R3-his; human MSLN-R3 protein; not shown: His tag

[18] = target: T3, human MSLN-R3-his protein; assay: ELISA, coated antigen, antibody 10 nM
Procedure: as §3

[19] = target: T3, human MSLN-R3-his protein; assay: ELISA, coated antigen, antibody 0.1 nM
Procedure: as §3

[20] = target: T3, human MSLN-R3-his protein; assay: ELISA, coated antigen, antibody 100 nM
Procedure: as §3

[21] = target: T3, human MSLN-R3-his protein; assay: ELISA, coated antigen, antibody 0.01 nM
Procedure: as §3

[22] = target: T3, human MSLN-R3-his protein; assay: ELISA, coated antigen, antibody 0.001 nM
Procedure: as §3

[23] = target: T3, human MSLN-R3-his protein; assay: ELISA, coated antigen, antibody 0.0001 nM
[24] = target: T3, human MSLN-R3-his protein; assay: ELISA, coated antigen, no antibody (blank)
Procedure: as §3

[25] = target: T4, human MSLN-FL-his protein (human, UniProt Q13421 296-580); assay: ELISA, coated antigen; antibody 1 nM
T4 construct: also called human MSLN full-length protein; hMSLN-FL-his; not shown: His tag

[26] = target: T4, human MSLN-FL-his protein; assay: ELISA, coated antigen; antibody 10 nM
Procedure: as §3

[27] = target: T4, human MSLN-FL-his protein; assay: ELISA, coated antigen; antibody 0.1 nM
Procedure: as §3

[28] = target: T4, human MSLN-FL-his protein; assay: ELISA, coated antigen; antibody 100 nM
Procedure: as §3

[29] = target: T4, human MSLN-FL-his protein; assay: ELISA, coated antigen; antibody 0.01 nM
Procedure: as §3

[30] = target: T4, human MSLN-FL-his protein; assay: ELISA, coated antigen; antibody 0.001 nM
Procedure: as §3

[31] = target: T4, human MSLN-FL-his protein; assay: ELISA, coated antigen; antibody 0.0001 nM
Procedure: as §3

[32] = target: T4, human MSLN-FL-his protein; assay: ELISA, coated antigen; no antibody (blank, column 'none')
Procedure: as §3

T3 sequence (Q13421 495-606): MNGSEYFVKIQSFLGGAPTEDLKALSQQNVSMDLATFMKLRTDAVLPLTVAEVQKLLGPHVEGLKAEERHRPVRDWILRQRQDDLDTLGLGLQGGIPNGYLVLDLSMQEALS
T2 sequence (Q13421 other isoform, or with tags, fused parts or gaps): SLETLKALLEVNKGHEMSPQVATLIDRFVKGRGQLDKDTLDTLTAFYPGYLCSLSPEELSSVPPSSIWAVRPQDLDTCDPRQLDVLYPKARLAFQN

competition rate [1]: 1%
competition rate [2]: 3%
competition rate [3]: -24%
competition rate [4]: -233%
competition rate [5]: 93%
competition rate [6]: 97%
competition rate [7]: 87%
Kd [8]: 43.1 nM
koff [8]: 0.00312 s⁻¹
kon [8]: 72400 M⁻¹ s⁻¹
B1: S009-F2-56.12 (antibody, human IgG1, kappa, V domains shown)
VH: DVQLQESGPGMVKPSQSLSLTCTVTGYSITSGYDWHWIRHFPGNKLEWMGYISYSGSTNYNPSLKSRISITHDTSKNHFFLKLKSVTTEDTATYYCARGTGPDYWGQGTTLTVSS
VL: DIVMTQSQKFMSTSVGDRVSITCKASQNVRTAVAWYQQKPGQSPKALIHLPSNRHTGVPDRFTGSGSGTDFTLTISNVQSEDLADYFCLQHWNYPLTFGGGTKLEIKR
notes: human-murine chimeric antibody, human IgG1/kappa constant regions

competition rate [1]: 19%
competition rate [2]: 26%
competition rate [3]: -10%
competition rate [4]: -262%
competition rate [5]: 99%
competition rate [6]: 101%
competition rate [7]: 100%
Kd [8]: 1.2 nM
koff [8]: 0.000185 s⁻¹
kon [8]: 154000 M⁻¹ s⁻¹
B2: S009-F4-94.15 (antibody, human IgG1, kappa, V domains shown)
VH: QVQLHQPGAELVRPGSSVKLSCKASGYTFTSYWVHWVQQRPRQGLEWIGNIDPSDSEIHYNQKFKDKATLTVDKSSSTAYIHLSRLTSEDSAIYYCVRGGVPWFAYWGQGTLVTVSA
VL: QIVLTQSPAIMSASPGEKVTLTCSASSSVSSTYLYWFQQKPGSSPKVWIYSTSNLASGVPARFSGSGSGTSYSLTISSMEAEDAASYFCHQWISYPYTFGGGTKLEIKR
notes: as for B1

competition rate [1]: 15%
competition rate [2]: 2%
competition rate [3]: 58%
competition rate [4]: -366%
competition rate [5]: -3%
competition rate [6]: -77%
competition rate [7]: 11%
Kd [8]: 105 nM
koff [8]: 0.000478 s⁻¹
kon [8]: 4560 M⁻¹ s⁻¹
B3: S009-F3-63.5 (antibody, human IgG1, kappa, V domains shown)
VH: QVQLQQSGAELVRPGASVTLSCKASGYTFTDYEMHWVKQTPVHGLEWIGGIDPETGDTAYNQQFKGKAILTADRSSSTAYMELRSLTSEDSAVYYCTNYASSREDYWGQGTTLTVSS
VL: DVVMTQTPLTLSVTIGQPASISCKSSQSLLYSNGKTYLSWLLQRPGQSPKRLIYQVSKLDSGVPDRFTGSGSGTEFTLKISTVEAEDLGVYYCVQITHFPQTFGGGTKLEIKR
notes: as for B1

OD450 [9]: 0.3 OD450
OD450 [10]: 1.39 OD450
OD450 [11]: 0.08 OD450
OD450 [12]: 2.07 OD450
OD450 [13]: 0.06 OD450
OD450 [14]: 0.06 OD450
OD450 [15]: 0.06 OD450
OD450 [16]: 0.07 OD450
B4: Tab106 (YP218, hIgG1) (antibody, V domains shown)
VH: QQQLEESGGGLVKPEGSLTLTCKASGFDLGFYFYACWVRQAPGKGLEWIACIYTAGSGSTYYASWAKGRFTISKASSTTVTLQMTSLAAADTATYFCARSTANTRSTYYLNLWGPGTLVTVSS
VL: DVVMTQTPASVSEPVGGTVTIKCQASQRISSYLSWYQQKPGQRPKLLIFGASTLASGVPSRFKGSGSGTEYTLTISDLECADAATYYCQSYAYFDSNNWHAFGGGTEVVVRT
notes: Control antibody: YP218 VH and VL recombined into human IgG1 CH and CL expression vectors; also called YP218 human IgG1 antibody

OD450 [17]: 1.57
OD450 [18]: 1.69
OD450 [19]: 0.88
OD450 [20]: 1.79
OD450 [21]: 0.18
OD450 [22]: 0.06
OD450 [23]: 0.05
OD450 [24]: 0.07
B5: Tab106 (YP218, hIgG1) (antibody, V domains shown)
VH: B4 VH
VL: B4 VL
notes: Control: YP218 VH and VL recombined into human IgG1 CH and CL expression vectors; also called YP218 human IgG1 antibody

competition rate [1]: 27%
competition rate [2]: 39%
competition rate [3]: 2%
competition rate [4]: 60%
competition rate [5]: 98%
competition rate [6]: 99%
competition rate [7]: 94%
Kd [8]: 10.1 nM
koff [8]: 0.000369 s⁻¹
kon [8]: 36700 M⁻¹ s⁻¹
B6: S009-F6-76.1 (antibody, human IgG1, kappa, V domains shown)
VH: QVQLQQSGPELVKPGASVKISCKASGYTFTDYYINWVKQRPGQGLEWIGWIFPGRGSTFYYEKFKGKATLTVDKSSSTAYMLLSSLTSEDSAVYFCARRGDSAGYEDLDYWGQGTSVTVSS
VL: NIVMTQSPKFMSMSVGERVTLSCKASENVVTYVSWYQQKPKQSPKLLIYGASKRYTGVPDRFTGSGSATDFTLTISSVQAEDLGDYHCGQSYSYPYTFGGGTKLEIKR
notes: as for B1

competition rate [1]: 30%
competition rate [2]: 28%
competition rate [3]: -17%
competition rate [4]: -76%
competition rate [5]: 57%
competition rate [6]: -143%
competition rate [7]: 25%
Kd [8]: 120 nM
koff [8]: 0.0173 s⁻¹
kon [8]: 144000 M⁻¹ s⁻¹
B7: S009-F6-62.5 (antibody, human IgG1, kappa, V domains shown)
VH: QVQLQQPGTELVKPGASVKLSCRASGYTFTAYWMHWVKQRPGQGLEWIGNINPSNGGTDFNEKFKSKATLTVDKSSSTAYMQLSSLTSEDSAVYYCARGRGYFDVWGTGTTVTVSS
VL: DILLTQSPAILSVSPGERVSFSCRASKNIGTSIHWYQQRTNGSPRLLIKYASESISGIPSRFSGSGSGTDFTLNINSVESEDIADYYCQQSNSWPTLTFGAGTKLELKR
notes: as for B1

OD450 [25]: 3.13 OD450
OD450 [26]: 3.11 OD450
OD450 [27]: 2.45 OD450
OD450 [28]: 3.22 OD450
OD450 [29]: 0.94 OD450
OD450 [30]: 0.27 OD450
OD450 [31]: 0.05 OD450
OD450 [32]: 0.05 OD450
B8: S009-F6-62.5 (antibody, human IgG1, kappa, V domains shown)
VH: B7 VH
VL: B7 VL
notes: Human-murine chimeric antibody, human IgG1/kappa constant regions
